Data published in US6132750A (Coletica, priority 1998, dated 2000).

Experiment: Inhibition of the Fe2+ induced radical degradation of hyaluronic acid (viscosity drop)
Description: The chelating microspheres prepared according to I2 are used to evaluate their capacity, via the trapping of ferrous iron Fe2+, to inhibit the radical degradation of hyaluronic acid, glycosarinoglycan implied in the moisturisation of the human dermis, which is therefore a particularly important target to protect in cosmetic and dermo-pharmaceutical applications.
A 10 g/l solution of hyaluronic acid of high molecular weight (>1,000,000g/mol or Daltons) is prepared in demineralised water. To this solution is added an amount of Fe2+ of 620 ppm.
Other chelating agents which are conventionally used in cosmetics were used and compared to the chelating microspheres, for their capacity to reduce the radical degradation of hyaluronic acid. Indices of protection, expressed in % of protection, are calculated by carrying out a ratio of the drop in viscosity observed by the presence of iron Fe2+ (620 ppm) in the presence of the chelating agent studied, and the drop in viscosity observed with and without iron Fe2+.

B1: Lactoferrin (protein, UniProt P02788 20-710, looked up)
Lactotransferrin: GRRRSVQWCAVSQPEATKCFQWQRNMRKVRGPPVSCIKRDSPIQCIQAIAENRADAVTLDGGFIYEAGLAPYKLRPVAAEVYGTERQPRTHYYAVAVVKKGGSFQLNELQGLKSCHTGLRRTAGWNVPIGTLRPFLNWTGPPEPIEAAVARFFSASCVPGADKGQFPNLCRLCAGTGENKCAFSSQEPYFSYSGAFKCLRDGAGDVAFIRESTVFEDLSDEAERDEYELLCPDNTRKPVDKFKDCHLARVPSHAVVARSVNGKEDAIWNLLRQAQEKFGKDKSPKFQLFGSPSGQKDLLFKDSAIGFSRVPPRIDSGLYLGSGYFTAIQNLRKSEEEVAARRARVVWCAVGEQELRKCNQWSGLSEGSVTCSSASTTEDCIALVLKGEADAMSLDGGYVYTAGKCGLVPVLAENYKSQQSSDPDPNCVDRPVEGYLAVAVVRRSDTSLTWNSVKGKKSCHTAVDRTAGWNIPMGLLFNQTGSCKFDEYFSQSCAPGSDPRSNLCALCIGDEQGENKCVPNSNERYYGYTGAFRCLAENAGDVAFVKDVTVLQNTDGNNNEAWAKDLKLADFALLCLDGKRKPVTEARSCHLAMAPNHAVVSRMDKVERLKQVLLHQQAKFGRNGSDCPDKFCLFQSETKNLLFNDNTECLARLHGKTTYEKYLGPQYVAGITNLKKCSTSPLLEACEFLRK
notes: chelating agent conventionally used in cosmetics for trapping iron
- Index of protection (%) (concentration used 133 mg/l, hyaluronic acid 10 g/l, Fe2+ 620 ppm): 25%
- effect on the depolymerisation (radical cleavage) of hyaluronic acid in the presence of iron (in words): accelerated
